In paper PMC6476982, “The CXXC Motifs Are Essential for the Function of BosR in Borrelia burgdorferi” (Frontiers in Cellular and Infection Microbiology, 2019):

Target: the molecule itself
Assay: SEC; HiLoad 16/60 Superdex 200 prep grade column on an Äkta FPLC in buffer A (20 mM Hepes, 300 mM NaCl, 100 mM L-arginine, 1 mM TCEP, pH 7.0); molecular weight from a calibration curve of gel filtration standards; self-association, dimer or monomer

B1: recombinant BosR with a C-terminal Strep-II tag (WT rBosR-StrepII) (natural protein)
chain: MNDNIIDVHSALEKVGITNDPVLLKNLTSELGMKASHSRNRIILYIASNPKEYFTAKEVYNKLIKEIPSLSKATVYNTLNILKERNILKDIKTTDQKETKFYLSLASTIAHFKCNKCNQVHPIQLDDIKDILKDKLGENWETKSIEIIYSGHCNNCYKKDTHNNNNVPDENKEITL
notes: BosR (Fur family member), Borrelia burgdorferi strain 297, ORF bb0647; bosR amplified with primers from the ATG start codon to the last codon before the stop, fused directly to the Strep-II tag; theoretical MW of rBosR-StrepII 21.25 kDa; also called pOY436; source: E. coli M15 (pREP4), purified (Strep-Tactin resin, Superdex 200 FPLC)
With B1 the “stoichiometry N” value was 2.
